Values of other authors in PMC4019842.

Target: holo-transferrin (Homo sapiens) (UniProt P02787)
UniProt P02787, sequence (P02787 20-698): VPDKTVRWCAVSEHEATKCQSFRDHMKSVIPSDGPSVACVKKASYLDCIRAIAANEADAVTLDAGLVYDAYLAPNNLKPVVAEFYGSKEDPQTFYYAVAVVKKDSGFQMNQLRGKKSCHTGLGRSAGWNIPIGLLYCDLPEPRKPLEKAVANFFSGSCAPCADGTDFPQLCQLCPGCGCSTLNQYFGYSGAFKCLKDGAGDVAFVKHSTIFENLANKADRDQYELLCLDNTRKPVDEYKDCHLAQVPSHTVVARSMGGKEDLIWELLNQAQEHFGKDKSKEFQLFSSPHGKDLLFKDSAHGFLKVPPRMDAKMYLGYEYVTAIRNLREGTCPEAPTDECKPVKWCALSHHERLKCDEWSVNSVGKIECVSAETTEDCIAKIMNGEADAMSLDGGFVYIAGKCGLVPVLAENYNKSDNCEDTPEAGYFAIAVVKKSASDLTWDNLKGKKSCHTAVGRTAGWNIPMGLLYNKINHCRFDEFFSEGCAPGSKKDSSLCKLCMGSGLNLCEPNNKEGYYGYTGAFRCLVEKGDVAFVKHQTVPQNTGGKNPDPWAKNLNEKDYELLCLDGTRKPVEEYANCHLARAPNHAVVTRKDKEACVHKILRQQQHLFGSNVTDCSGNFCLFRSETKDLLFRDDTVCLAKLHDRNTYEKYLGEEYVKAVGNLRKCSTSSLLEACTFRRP

TFR2 (from UniProt Q9UP52)
Kd: 30 nM
